Test results from a protein production outcome set (Wang et al. 2014).

Assay: label from the status in PepcDB records

Sequence	protein production
MRSTKIVCTVGPRTDSYEMIEKMIDLGVNVFRINTSHGDWNEQEQKILKIKDLREKKKKPVAILIDLAGPKIRTGYLEKEFVELKEGQIFTLTTKEILGNEHIVSVNLSSLPKDVKKGDTILLSDGEIVLEVIETTDTEVKTVVKVGGKITHRRGVNVPTADLSVESITDRDREFIKLGTLHDVEFFALSFVRKPEDVLKAKEEIRKHGKEIPVISKIETKKALERLEEIIKVSDGIMVARGDLGVEIPIEEVPIVQKEIIKLSKYYSKPVIVATQILESMIENPFPTRAEVTDIANAIFDGADALLLTAETAVGKHPLEAIKVLSKVAKEAEKKLEFFRTIEYDTSDISEAISHACWQLSESLNAKLIITPTISGSTAVRVSKYNVSQPIVALTPEEKTYYRLSLVRKVIPVLAEKCSQELEFIEKGLKKVEEMGLAEKGDLVVLTSGVPGKVGTTNTIRVLKVD	not failed
MRSVRKRTVLVSTLLALVLTQVARADDKGSHPAVIGDVHFKVECNATAQAKFNVAVAYYHSFQWQRVIATADDVLKVDPTCGMAHWVKALAMLDNPFAWPVTLSEKAIAEGPVLLDAARKAGLKTQRERDYVDALAIFFKDLNTTNYRERAESFEKAMAQLAQQNADDSEATVLYALILSRNFDPTDKTYRNQLHAAELLEPIFAREPNHPGVAHYLIHSYDYPPLAKRGIDAARKYAKIAPDTPHSLHMPSHIFTLTGFWQESIDTNRRAAEMADDSITHDGHHASDYMVYAHLQLGQDLAARKIMEQEQVRHGIDMIGVAYPYAAIPARIALERRAWREAADLPLYARDTYPWKKYPQAEAVNAFARGVGSAMSGEPAKANFEAKRLIKLRDAATAMKLNYWADQIDIQAEVVRGLADFAEGKRDEGIAILHRAAEREDASAKNVVTPGPVVPAREMLATILERDRKPADALAEFEKVLEQHPNRYRTIAGAAQNAKQAGNEQKADHYAELLLKLAEHADSPRPEIAEAKSMLGM	failed
MRTICVFNNKGGVGKTTLLCNLAAYFSIKRGKKVLVVDADPQCNATAYMIKEKVLDKLYASSSSDSATINSLIASLKKSKGYGIPPVLRSDGFNVDIVPGDPKFSLAEDFLAKDWLDAIAGDERGLRTTFFFRNLISWARSDGYDLVFFDMGPSLGAINRTVLLSSDHFILPMSSDIFSLRGLQNIEVALKNWTKGIERGLVSFKEDQGTSFKVESGDALSELGVSFLGYVTQQYTAKTVDGKKQPVSAYEKIIKKIDPLVSKHLILPLNKGQKLNYKLGEIPYFQSLVPMAQTATVPIFALKKADGVVGAHFDKVRQFDSVISGIVDKIEANMNSKGN	failed
MRTLGIIGFGGFGQFMVKHLQPYISVTVHDLTDLSHIAAEHKVEWGTLQETASKDIVILAVPVQFLESLLLEIKDYLKAEALIVDVSSVKVKPIELMLKHLPLTVDILGTHPLFGPQSGKNGIKGLNMVVCPVRSKKMRAITHFLRNVIQLNVLERTPETHDKQMAYVQALTHFIGRSINEMDIPDVEQKTPAYQYLLDIKRNLGGDSMDLFLTIELENPYAKKVREEFMGALKSLNDRLEHIKR	failed
MRTLLFLHLLGAAIWVGGHLVLALGILPGALRRRDPQAIRAFEQVYERIGIPALLLQVVSGLWLASLWLPFDHWFGATPVARALQLKLLLLAATAALGVHARLRLIPNLDAESLPKLGWHIAAITLVGLGFVAVGQSFRFGGAF	failed
MRTLLFLMLGSVSAIANAASPAPASASASAASATATATPEQIKLQLREYFFDAAREGRQDMLAEFIRSHYDLNTRDEKGYTALILAAYHGQRPAVEQLLSAGADPCAQDKRGNTALMGAIFKGELGIAKRLMQADCAPDQRNNAGQTAAMYAALFQRTDVLKDLAAKGADLSLKDGQGNDVTKLQRGEFATTPAR	failed
MRTLLITGPGGSGRTTVAAATALRASRTGTRTLVLSADRTDTLGAALGVPTGGAPVEAAPGLTAWRPDAADRFRADLTAFQDRAATALDFLGAARLDAEELTPLPGAEELALLRALRDAALSEAYDLLVVDLPPAPQALALLALPEELRRYLRRLLPPERQAARALRPVLGRLAGVPMPADWLYETAARWDVELAAVEAVVEDRATTVRLVAEPGPAGADAVRAAATGFALRAVRIDTLIANRLLPEEADDAWSAGLAAQQRKFLEEWRGEYRLHELPHLGHDPRGADDLAALAVPGVNDAPGPVEWSVADRLADDGVLVWHIPLPGAIRDELDLLRRGDELVVTAGQFRRIVPLPSALRRCTVAGAALREGELRIRFAPDPDLWPRERLEHHHHHH	not failed
MRTLRSLMLAAALAVALAVTGFAASPLPSAYAKYAAGPTKILPLQRAFPLDELVELSELRARDRVRHARILLGGGRQSSVGGVVDFPVQGSSDPYLVGLYFTKVKLGSPPTEFNVQIDTGSDILWVTCSSCSNCPHSSGLGIDLHFFDAPGSLTAGSVTCSDPICSSVFQTTAAQCSENNQCGYSFRYGDGSGTSGYYMTDTFYFDAILGESLVANSSAPIVFGCSTYQSGDLTKSDKAVDGIFGFGKGKLSVVSQLSSRGITPPVFSHCLKGDGSGGGVFVLGEILVPGMVYSPLVPSQPHYNLNLLSIGVNGQMLPLDAAVFEASNTRGTIVDTGTTLTYLVKEAYDLFLNAISNSVSQLVTPIISNGEQCYLVSTSISDMFPSVSLNFAGGASMMLRPQDYLFHYGIYDGASMWCIGFQKAPEEQTILGDLVLKDKVFVYDLARQRIGWASYDCKCNHRVMSYRKL	failed
MRTMPDKPDTWARIVAAISNPLWQGMIMAIVVSLLRILYDAKETSKRRILFEALICGSLSLVASSLIEWMTWPPSLSVAAGGTIGFLGVTAIRELVARFIGRKVDSL	failed
MRTPTTILLLVGAILFSGAGYVRSDASDHRYKEGDTVPLYANKVGPFHNPSETYRYFDLPFCIPEGVKEKKEALGEVLNGDRLVSAPYKLNFRDEKESEVYCNKKLSKEEVKQFRKAVEKDYYFQMYYDDLPIWGFIGKVDKDIKSDPSEFKYFLYKHIQFEILYNKDRVIEISARMDPHSLVDLTEDKEVDAEFMYTVKWKETETPFEKRMEKYSMSSSLPHHLEIHWFSIINSCVTVLLLTGFLATILMRVLKNDFMKYAQDEEAADDQEETGWKYIHGDVFRFPTHNSLFAASLGSGTQLFTLTIFIFMLALVGVFYPYNRGALFTALVVIYALTSGIAGYTSASFYCQLEGKSWVRNLLLTGCLFCGPLFLTFCFLNTVAITYTATAALPFGTIVVIVLIWTLVTSPLLVLGGIAGKNSKAEFQAPCRTTKYPREIPPLPWYRSAIPQMAMAGFLPFSAIYIELYYIFASVWGHRIYTIYSILFIVFIILIIVTAFITVALTYFQLAAEDHQWWWRSFLCGGSTGLFIYAYCLYYYYARSDMSGFMQTSFFFGYMACICYGFFLMLGTVGFRAALLFVRHIYRSIKCE	failed
MRTRWLPRGRGLGSASARLRSAVAGRGTVRAELGYGAFLSYSGERDRRWLPQLRHAIEKQSRPWYKPPHIRVFLDKTGVSIGPELWGKIEAGLARSDWLVVLASPEARASVWVDREIAWWLEHKSVHTILLVVTAGQLVWDEERGDWDPERSTALPARLAGKFERQPVWKSVDPRPDGDAVFSTDDAGFSPDVDGVAFGVASVVRGLSEDELRSEGLRDTRRNLRTARIVATALGCLLLVASTLSVVAVLSRAEATRQRDQAVVQQLITQSSLLAERDPFAARLKALAAWRIDPSPETRFAVLDAAVNPASGVLSHSVPVDSVAFSPDGRTVASGGSDGVVRIWRTGTQRTAGRPLIGHHQGITSIAFAPDGRTLASSGFDGTVRLWDLADRTQIGAPFNAGAGSVRSVAFGRDGRTLVTVDEADSGTVRVWDVATHRQTGHPLDGPGPVLGTNADGSRVGSSTSQGGIRLWDTASGAPAGGALKGGDGVVTALSFSSDGKTFATADLVGNLRLWDIEARAPVGEPIASPATSTGVRAITFSPDGAMLAAAYEGGGVRLWDLRRRAQVGGPLLAHTSTVESVAFSPDGSVLASASADTTVRLWDVRTLRQAGAPIDTGGKGAAALSPDGRSLAVVDSEQAVRLWDVVARRRVGEPLVRGVYSFSPSLAFRADGAVLAIGADGLRLREVATRRPVGEPLLGTGDVGALSFGPDGRTLVSGGPDSVHVWDLTARPPTGTALGPRSVGVALSPDGRSLATTTQDDTVVFWDMATRRRIGETPGDHTAQITAVAWSPDGTTLATAGRDDTVRLWDAATRERIGAPLRGHHGGLTSVVFSPDGATLATGGNDHTVRLWDVATERPIGAPLEGHGAGVTGVAFTPGGDTLVSWAQDGTARLWNVAATVDPVRSLCAWADGAFTTDRWHEDVPAGPASRTLCRK	failed
MRTSGGQMNISSATLANTQRTIDSYEGCADDYSRIVDQFPWPSLEAALRQVATAAGKGGQILEIGSGAGWDADFLETQGVSVRRTDATRRFLELQAARGKKGELLNVITDDLGGPYDAVVALCVLIHAPRDQTGPVLEKIVAALRPGGVFLVSMRDGDGETSGAYHMSYWRRDDFALCIKEAGLALEWDAHRVNRDGDGWHTFYARRPE	failed
MRTSRVLAGILAATLTVSLAACSQDSSETSSNSSSAASQSSDVSNEAFPVTIEHAFGETTIESKPERIATVGWSNHEVPLALGVTPVGFEKVTWGDDDNNGILPWVEETLSKLGSDEPVLFDATDSIPFEEIANTAPDVILASYSGITQEDYDQLSQIAPVVAYPEIAWGTSLDEMIEMNSKAIGLEQEGKDLIADLDAEVASAIDANPELKDAKPVFAFFDESDFSQIGVYTSIDPRMSFLLDAGVQEASVLKEHSSPDSFYEQVSAENPETFDDVDVIITYGTEDDAANAELLSKMQADPLLSRIPAIAEGKVVFLGANPLAASANESPLSIPWGINDYFAKLAEPLK	failed
MRTWKMRKDGQRIDYLGRKWRNLGGPFMEVSRVVTWIIIITLVALAIKTILPFFSPLFFAFITAYALYPLHIKLKERIGSKNSAILLTLFLLLGALMILLILVYTLTPVIGQAYDYLTNLEKIKINIPLVPKSVISSLEGVIDEFIERGKGYLVSLTFSVPKYLLQVIVYLTFVYFFLVKEKEARELITFEDEKLIRIIERGNLTLQALIRVWLLLNIVKGILMTLGFLIFKVSNLPTAILAGLLTVLFSFIPLFEGWMIWLAGAFYLVKQGHIIAGIGLAVYGFTLVSPLPDFTIRPKLVAREAEFNDVLVLIGMIGGTWGLGLKGLIIGPIVLNVAIEMLREWKNVQAKTERS	failed
MRTYLVLFSILLVFLAGCISTESKVEDTTTAVTFVSVTDFTGETSTINSPVERVVSNYGLIPPIIYLFGEGDKIVAGRGVMGADEFIDAVDPEFKTRSKDIKSDNVEEIKSLNPDVIFAPSWGSQQGQYPQLKSLGIPVVFIDIETASNYYKTIEMMGEVFQKEAYAQELIDYYNQSTNDVLKRTASISENEKPRVLFLVYDQRKNSYWTPGGEFYQNNLITMAGGKTVSSDLPTGKAQINVEQAASWNPDVIITSAHTMEYPSTKVKEDVLTDEGWKEINAVKSGNVYAMPFDGESWDTLGSKYVLGLYWTAKTLHPDMYTDVDILNLTSSEYERFFNVSIDEVTLVGDNIE	failed
MRVALAGRPQEALDVALPAAELPEHLRWRLRSWQADAQEALGQSAEATLLYAEAAHLAAGLNRAVMLQEQAALLLQQGDFEEARQVLERARTLYTGPRPGTDPNDEGLNLATWHYLMAQVRLNLGQPEAAQDDIREAARLEGLSGDPSYGVALVQGQVLSHLGQLEEALEAFGQALARATDPDRPYANHELGVALLDLDRPLEAREKLEEVLLVPDYPFHPEVLADIAECDYRLGRLPEAQLAAEQALNQGAVVPASVVLGNVALDYYHLDDALDHYERVVREAVHGSRDWVLGHQMAADVMAQQGFPDPAAAYAHAQQALEHTPESDDWYVTLQDHLSRAQALMGSAGGRTLN	failed
MRVALTIAGSDSGGGAGVQADLKVFFRFGVYGTSALTLVTAQNTLGVQRVHLLPPEVVYAQIESVAQDFPLHAAKTGALGDAAIVEAVAEAVRRFGVRPLVVDPVMVAKSGDPLLAKEAAAALKERLFPLADLVTPNRLEAEALLGRPIRTLKEAEEAAKALLALGPKAVLLKGGHLEGEEAVDLLATRGGVLRFSAPRVHTRNTHGTGCTLSAAIAALLAKGRPLAEAVAEAKAYLTRALKTAPSLGHGHGPLDHWA	not failed
